Results taken from patent US20140328753A1.

Assays:
[1] = target: unlabeled protein extract from untreated animals; assay: direct TR-FRET inhibition; six-fold excess of unlabeled extract from untreated rabbits as competitor against biotinylated atheromatous extract, 16 h at 4 °C
[2] = target: rabbit atheromatous protein extract; assay: direct TR-FRET inhibition; six-fold excess of unlabeled atheromatous extract as competitor against biotinylated atheromatous extract, 16 h at 4 °C

B1: H2.1 scFv antibody (scFv)
scFv: EVQLVESGGSLVKPGGSLRLSCAASGFTFSNYSMNWVRQAPGKGLEWISSISGSSRYIYYADFVKGRFTISRDNATNSLYLQMNSLRAEDTAVYYCVRGGVDSSGDNCFDLWGRGTLVTVSSGGGGSGGGGSGGGGSQSVLTQPASVSGSPGQSITISCAGTSSDVGGYNYVSWYQQHPGKAPKLMIYEDSKRPSGVSNRFSGSKSGNTASLTISGLQAEDEADYYCTSYGSGATLVFGGGTKLAV
**Q.** With B1 as the binder, how does the inhibition of the DeltaF binding value [1] read?
**A.** 50%

**Q.** What about the inhibition of the DeltaF binding value [2] of the same binder?
**A.** 75%

B2: I8.1 scFv antibody (scFv)
scFv: EVQLVESGGSLVKPGGSLRLSCAASGFTFSNYSMNWVRQAPGKGLEWISSISGSSRYIYYADFVKGRFTISRDNATNSLYLQMNSLRAEDTAVYYCVRNSFYASWSKDYSMEIWGRGTLVTVSSGGGGSGGGGSGGGGSQSVLTQPASVSGSPGQSITISCAGTSSDVGGYNYVSWYQQHPGKAPKLMIYEDSKRPSGVSNRFSGSKSGNTASLTISGLQAEDEADYYCQSWASRINIFGGGTKLAV
**Q.** Which inhibition of the DeltaF binding value [1] does the source give for B2 here?
**A.** 35%

**Q.** And the inhibition of the DeltaF binding value [2]?
**A.** 80%
